The text below walks through data of IntAct's records for PubMed 14673118.

To fix the notation:
B1: Thioredoxin (Synechocystis sp. (strain PCC 6803 / Kazusa)), P52231 (parent)
chain: MSATPQVSDASFKEDVLDSELPVLVDFWAPWCGPCRMVAPVVDEISQQYEGKVKVVKLNTDENPNTASQYGIRSIPTLMIFKGGQRVDMVVGAVPKTTLASTLEKYL
partner: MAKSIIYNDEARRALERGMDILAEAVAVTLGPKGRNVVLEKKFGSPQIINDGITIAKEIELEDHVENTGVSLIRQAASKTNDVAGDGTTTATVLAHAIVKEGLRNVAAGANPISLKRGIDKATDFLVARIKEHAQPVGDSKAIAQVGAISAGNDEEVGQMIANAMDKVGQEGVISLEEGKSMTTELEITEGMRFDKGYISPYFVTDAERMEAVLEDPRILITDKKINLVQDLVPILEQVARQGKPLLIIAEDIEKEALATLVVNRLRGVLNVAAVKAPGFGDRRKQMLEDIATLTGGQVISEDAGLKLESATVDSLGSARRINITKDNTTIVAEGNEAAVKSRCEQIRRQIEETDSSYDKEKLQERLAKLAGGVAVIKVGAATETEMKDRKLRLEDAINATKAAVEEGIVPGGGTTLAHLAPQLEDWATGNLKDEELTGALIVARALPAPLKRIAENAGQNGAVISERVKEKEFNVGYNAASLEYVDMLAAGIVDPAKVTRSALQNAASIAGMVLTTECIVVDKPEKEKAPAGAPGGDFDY
B2: Thioredoxin (Synechocystis sp. (strain PCC 6803 / Kazusa)), P52231 (parent)
chain: B1 chain
partner: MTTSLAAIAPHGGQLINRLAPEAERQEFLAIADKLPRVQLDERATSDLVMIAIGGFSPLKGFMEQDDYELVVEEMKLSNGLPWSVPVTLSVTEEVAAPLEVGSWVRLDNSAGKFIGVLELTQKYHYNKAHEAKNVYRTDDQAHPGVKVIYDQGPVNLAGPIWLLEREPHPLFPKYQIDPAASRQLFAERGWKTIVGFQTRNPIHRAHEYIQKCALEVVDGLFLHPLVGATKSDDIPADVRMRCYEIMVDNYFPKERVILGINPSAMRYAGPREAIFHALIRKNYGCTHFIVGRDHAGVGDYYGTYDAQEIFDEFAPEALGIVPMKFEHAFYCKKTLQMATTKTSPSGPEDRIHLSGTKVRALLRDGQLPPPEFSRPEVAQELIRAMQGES
B3: Thioredoxin (Synechocystis sp. (strain PCC 6803 / Kazusa)), P52231 (parent)
chain: B1 chain
partner: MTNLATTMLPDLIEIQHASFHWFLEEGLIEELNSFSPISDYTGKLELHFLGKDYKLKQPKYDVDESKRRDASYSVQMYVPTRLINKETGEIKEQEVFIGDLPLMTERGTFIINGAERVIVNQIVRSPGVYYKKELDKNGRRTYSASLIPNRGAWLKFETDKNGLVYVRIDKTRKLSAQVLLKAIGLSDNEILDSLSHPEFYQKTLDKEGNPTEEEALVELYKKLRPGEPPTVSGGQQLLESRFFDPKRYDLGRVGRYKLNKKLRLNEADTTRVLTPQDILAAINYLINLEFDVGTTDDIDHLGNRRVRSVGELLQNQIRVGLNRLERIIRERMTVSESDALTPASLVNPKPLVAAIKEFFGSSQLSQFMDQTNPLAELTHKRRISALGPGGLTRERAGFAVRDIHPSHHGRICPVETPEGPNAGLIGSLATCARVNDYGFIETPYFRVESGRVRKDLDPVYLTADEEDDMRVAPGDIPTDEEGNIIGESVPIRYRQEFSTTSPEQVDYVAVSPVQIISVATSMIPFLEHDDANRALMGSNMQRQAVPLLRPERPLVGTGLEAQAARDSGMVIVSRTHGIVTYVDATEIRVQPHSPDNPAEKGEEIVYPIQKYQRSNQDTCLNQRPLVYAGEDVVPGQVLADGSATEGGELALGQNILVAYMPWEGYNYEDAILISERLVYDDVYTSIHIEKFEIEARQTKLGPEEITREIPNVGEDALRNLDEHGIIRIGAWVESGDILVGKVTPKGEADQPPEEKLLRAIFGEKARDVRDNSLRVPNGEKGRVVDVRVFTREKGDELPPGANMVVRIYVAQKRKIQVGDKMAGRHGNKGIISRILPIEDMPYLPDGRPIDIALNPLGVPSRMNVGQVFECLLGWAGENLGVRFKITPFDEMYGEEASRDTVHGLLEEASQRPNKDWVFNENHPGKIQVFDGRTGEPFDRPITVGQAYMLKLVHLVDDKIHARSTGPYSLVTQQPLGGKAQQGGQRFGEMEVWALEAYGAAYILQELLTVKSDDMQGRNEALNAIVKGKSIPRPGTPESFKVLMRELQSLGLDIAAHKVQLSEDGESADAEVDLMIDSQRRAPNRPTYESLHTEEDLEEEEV
B4: Thioredoxin (Synechocystis sp. (strain PCC 6803 / Kazusa)), P52231 (parent)
chain: B1 chain
partner: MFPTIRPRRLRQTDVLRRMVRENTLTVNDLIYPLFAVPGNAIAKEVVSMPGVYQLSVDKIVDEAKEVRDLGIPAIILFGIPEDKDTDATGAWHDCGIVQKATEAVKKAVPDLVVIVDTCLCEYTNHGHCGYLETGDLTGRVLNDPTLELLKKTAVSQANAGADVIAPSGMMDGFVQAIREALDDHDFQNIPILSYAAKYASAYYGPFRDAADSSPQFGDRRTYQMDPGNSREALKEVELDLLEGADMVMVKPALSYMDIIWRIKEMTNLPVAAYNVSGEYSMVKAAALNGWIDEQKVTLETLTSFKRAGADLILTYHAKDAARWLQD
B5: Thioredoxin (Synechocystis sp. (strain PCC 6803 / Kazusa)), P52231 (parent)
chain: B1 chain
partner: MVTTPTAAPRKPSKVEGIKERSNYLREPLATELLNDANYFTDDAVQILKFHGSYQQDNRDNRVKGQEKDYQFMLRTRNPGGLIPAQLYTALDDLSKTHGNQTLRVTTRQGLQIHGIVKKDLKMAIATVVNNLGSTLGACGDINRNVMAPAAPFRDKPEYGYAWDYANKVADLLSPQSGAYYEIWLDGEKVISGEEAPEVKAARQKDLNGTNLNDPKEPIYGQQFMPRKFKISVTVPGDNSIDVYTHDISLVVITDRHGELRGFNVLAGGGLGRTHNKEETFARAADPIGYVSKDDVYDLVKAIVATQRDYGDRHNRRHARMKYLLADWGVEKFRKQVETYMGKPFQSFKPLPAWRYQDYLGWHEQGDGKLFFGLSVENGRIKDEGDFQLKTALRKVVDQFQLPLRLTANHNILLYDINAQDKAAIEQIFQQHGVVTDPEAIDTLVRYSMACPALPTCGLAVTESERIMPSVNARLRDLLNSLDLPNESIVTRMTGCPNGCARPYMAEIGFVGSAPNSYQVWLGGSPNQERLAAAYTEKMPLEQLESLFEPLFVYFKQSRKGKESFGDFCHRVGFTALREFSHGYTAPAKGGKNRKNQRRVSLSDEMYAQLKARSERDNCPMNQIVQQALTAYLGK

One assay covers variants of B1. Conditions: with ch601_syny3 groEL1, Q05972.
Take MSATPQVSDASFKEDVLDSELPVLVDFWAPWCGPSRMVAPVVDEISQQYEGKVKVVKLNTDENPNTASQYGIRSIPTLMIFKGGQRVDMVVGAVPKTTLASTLEKYL [C35S]: the “effect of a mutation on the interaction” value was “increasing interaction”.

Variants of B2 are the subject of another assay. The settings on record: with sat_syny3 sat.
Consider MSATPQVSDASFKEDVLDSELPVLVDFWAPWCGPSRMVAPVVDEISQQYEGKVKVVKLNTDENPNTASQYGIRSIPTLMIFKGGQRVDMVVGAVPKTTLASTLEKYL [C35S], for which the “effect of a mutation on the interaction” value is recorded as “increasing interaction”.

The variants in another assay derive from B3. Conditions: with rpob_syny3 rpoB.
In the case of MSATPQVSDASFKEDVLDSELPVLVDFWAPWCGPSRMVAPVVDEISQQYEGKVKVVKLNTDENPNTASQYGIRSIPTLMIFKGGQRVDMVVGAVPKTTLASTLEKYL [C35S], the “effect of a mutation on the interaction” value is “increasing interaction”.

Variants of B4 are the subject of another assay. Conditions: with hem2_syny3 hemB.
Regarding MSATPQVSDASFKEDVLDSELPVLVDFWAPWCGPSRMVAPVVDEISQQYEGKVKVVKLNTDENPNTASQYGIRSIPTLMIFKGGQRVDMVVGAVPKTTLASTLEKYL [C35S], the “effect of a mutation on the interaction” value is “increasing interaction”.

The variants in the next assay derive from B5. Conditions: with sir_syny3 sir.
For MSATPQVSDASFKEDVLDSELPVLVDFWAPWCGPSRMVAPVVDEISQQYEGKVKVVKLNTDENPNTASQYGIRSIPTLMIFKGGQRVDMVVGAVPKTTLASTLEKYL [C35S], the “effect of a mutation on the interaction” value was “increasing interaction”.
